According to the supplement of paper PMC11865577:

Tested on: TO-N3-2 (biotin conjugate)
Experiment: pull-down binding Z-score (relative to library population); higher = stronger binding
Details: RNA library: Library-2
Outline: (§1)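 Biotin-conjugated small molecule (100 pmol) on streptavidin beads was incubated with 1 μg of heat-folded Cy5- or Cy3-end-labelled RNA library in phosphate/NaCl/KCl buffer at 25 °C for 60 min. Following three washes, RNA was eluted with hot SDS and hybridised at 55.5 °C for 20 h to a DNA barcode microarray. The binding value is a Z-score computed from the library mean and standard deviation, after subtraction of beads without compound and averaging of barcoded replicate probes with the highest and lowest excluded.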

First: GGGUGAUACACAAGCCUGACCCUCCC [hsa-mir-6793]
Second: GGGUGGGCGGGGGCGGCCGGUGGGAACCCCGCCCCGCCCCGCGCCCGCACUCACCC [hsa-mir-7108]
The “pull-down binding Z-score” value of the first is lower: 0.954 for the first, 4.08 for the second.

Compared with GGGUGUAUGGUAUAGGGGUAGCCU [hsa-mir-3137], “GGGUUCAAUAGAUUGCUUUAGCUGAAGCAAGCCU [hsa-mir-8054]” is lower in “pull-down binding Z-score” value: 2.42 for the first, -0.201 for the second.

First: GGGUUGCAUCCUAAGCUGUGCUGGAGCUUCCC [hsa-mir-623]
Second: GGUAAGGUCUUUCAGCC [hsa-mir-7150]
The “pull-down binding Z-score” value of the first is higher: 0.682 for the first, 0.413 for the second.

Compared with “GGUACUUUAUAAUUUCAAAAAGUCCC [hsa-mir-361]”, GGUAGAGAUGAUUUUUCCUACU [hsa-mir-5003] is higher in “pull-down binding Z-score” value: -1.41 for the first, 0.226 for the second.

First: GGUAGGUUACGUCAUGCUGUUCUACC [hsa-mir-140]
Second: GGUAUGGAUUCUGUUGUUUUGGCAACAUUCU [hsa-mir-8088]
The “pull-down binding Z-score” value of the first is higher: 0.193 for the first, -0.244 for the second.

Going from “GGUCAGGUGGUGCCCUCCUUCCAUGGGUAGAGCCAGAGAUGGUGGGUUCUGGCU [hsa-mir-6131]” to “GGUCUGAGCCCAUGUGUGGACCUAGGUCUGCUGUUAAACUGACU [hsa-mir-6831]”, the “pull-down binding Z-score” value falls from 2.25 to 0.647.

First: GGUGCAAAGCCUGCCCGCCCC [hsa-mir-5090]
Second: GGUGCAGUCAGUCCUAGCUC [hsa-mir-3135b]
The “pull-down binding Z-score” value of the first is higher: 1.09 for the first, 1.06 for the second.

Going from GGUGGCAAUCAAGGUCUAGCCACC [hsa-mir-4733] to “GGUGGGCCUCUGCUCUGGCCCCUCC [hsa-mir-1343]”, the “pull-down binding Z-score” value rises from 0.228 to 0.301.

Going from “GGUGGGGGCUCUGAGUGGGGAAAGUGGGGGCCUAGGGGAGGUCACAGU [hsa-mir-4259]” to GGUGGGUGCC [hsa-mir-1268b], the “pull-down binding Z-score” value falls from 2.4 to -0.075.

Going from “GGUGGGUGGGAAGUAAGAUCUGACCUGGACUCCAUCCCACCCACC [hsa-mir-4640]” to GGUGGUUGUGGGAGUCACU [hsa-mir-4418], the “pull-down binding Z-score” value falls from 4.38 to 1.93.

Going from GGUGUCAUGCCCCAAGAUAACC [hsa-mir-634] to GGUGUCGAACUCAUGGCUGCCACC [hsa-mir-6782], the “pull-down binding Z-score” value rises from 0.0681 to 0.629.

Compared with “GGUUCAAGUUUGGCUCCAUCUUUAUGAAA [hsa-mir-4506]”, GGUUCCCACGCCGCGGCAACC [hsa-mir-6776] is lower in “pull-down binding Z-score” value: 0.415 for the first, 0.293 for the second.

Compared with GGUUCUCAGUCAGAACC [hsa-mir-6813], “GGUUCUGGGGUGUAGACGCUGCUGGCCAGCC [hsa-mir-4707]” is higher in “pull-down binding Z-score” value: -1.21 for the first, 0.971 for the second.

First: GGUUCUUCCCGAAGC [hsa-mir-4710]
Second: GGUUGCUGGAGGUCAGC [hsa-mir-6871]
The “pull-down binding Z-score” value of the first is lower: -0.359 for the first, 0.785 for the second.

Compared with “GGUUGGCCGCUGACCCCCGCGGGGCCCCCGGCGGCC [hsa-mir-3195]”, “GGUUGGGGUGGGCUGCCUGUGGACCAAUC [hsa-mir-4525]” is higher in “pull-down binding Z-score” value: 0.847 for the first, 1.94 for the second.

First: GGUUGUUAGAUAGACAACU [hsa-mir-4510]
Second: GGUUGUUUAAUUAGGAACCAACU [hsa-mir-190b]
The “pull-down binding Z-score” value of the first is higher: -0.496 for the first, -0.593 for the second.

First: GGUUUCCUUCGGGGCAGGUGGGGACUGCUCCUUUGGGAGGAAGGAGGAGGCC [hsa-mir-4453]
Second: GGUUUCGGGCUGCC [hsa-mir-661]
The “pull-down binding Z-score” value of the first is higher: 2.11 for the first, 0.74 for the second.

First: GGUUUCUUAAAAUGGAAUCU [hsa-mir-1255b-1]
Second: GGUUUGCGCCUCAAGAAACC [hsa-mir-1255b-2]
The “pull-down binding Z-score” value of the first is lower: -0.251 for the first, 0.521 for the second.

Going from GGUUUUGCCAUCAUGCCAAAAGCU [hsa-mir-548v] to GGUUUUUACCAUUAAAACC [hsa-mir-548aw], the “pull-down binding Z-score” value falls from 0.259 to -1.44.

Going from GUAAGAGAGACUCUCGCUUCCUGC [hsa-mir-874] to GUAGAUUGAAAGCCCUAAUUUUAC [hsa-mir-3941], the “pull-down binding Z-score” value falls from 0.462 to 0.452.

First: GUAGAUUUUAUGUCAC [hsa-mir-892b]
Second: GUAUACUGAGCUUAUGUAUGCAUCUGCAUAC [hsa-mir-5591]
The “pull-down binding Z-score” value of the first is lower: 0.0365 for the first, 0.0714 for the second.

Going from “GUAUGAGUGCCACAGAGCCGUCAUAA [hsa-mir-9-3]” to “GUAUGAGUGGUGUGGAGUCUUCAUAA [hsa-mir-9-1]”, the “pull-down binding Z-score” value falls from 1.73 to 0.298.

Compared with GUAUGAGUGUAUUGGUCUUCAUAA [hsa-mir-9-2], GUCACAAAUUCAAAUAAAGUGAG [hsa-mir-4693] is higher in “pull-down binding Z-score” value: 0.481 for the first, 0.598 for the second.

First: GUCACCAGCCCUCAUGUACUUGUGAC [hsa-mir-6820]
Second: GUCACUGUCUCAAAUCAGUGAC [hsa-mir-549a]
The “pull-down binding Z-score” value of the first is higher: -0.281 for the first, -1.33 for the second.

Going from GUCAGGAGUGGCUUUCCUGAC [hsa-mir-4462] to “GUCAGGUGAUGGUGAUAAGGUCAAGGCCUG [hsa-mir-6853]”, the “pull-down binding Z-score” value rises from -0.397 to 1.03.

Compared with “GUCAGUCCCAAUCUGAAUCCCACCAAAAUAGGUGGUAGAGGGUUGC [hsa-mir-4290]”, GUCAUUACUUUCAAUAGC [hsa-mir-548p] is lower in “pull-down binding Z-score” value: 0.752 for the first, -0.372 for the second.

Compared with GUCAUUUCCCAUCACUAAUGGC [hsa-mir-6815], “GUCAUUUUUCUGUGACUGCACAUGGC [hsa-mir-3136]” is higher in “pull-down binding Z-score” value: -0.881 for the first, -0.214 for the second.

First: GUCCAUUAGGCUUUGUUAUGGAAACUUCUCCUGAUC [hsa-mir-635]
Second: GUCCCAAUACAUGUGGGCC [hsa-mir-586]
The “pull-down binding Z-score” value of the first is higher: 0.875 for the first, -0.294 for the second.

With GUCCGGGUGGGUUCCGGCA [hsa-mir-657] the “pull-down binding Z-score” value was 2.1.

Tested on: TO-N3 (biotin conjugate)
Experiment: as above
Details: RNA library: Library-2
Outline: as §1

First: GGGGCCCUACUUUAAGGGCCCU [hsa-mir-8087]
Second: GGGGCCUGUGGUCCC [hsa-mir-1268a]
The “pull-down binding Z-score” value of the first is higher: 0.868 for the first, -0.282 for the second.

Going from GGGGCUCUU [hsa-mir-4634] to “GGGGCUGAGGCUGAGUCUUCCUCCC [hsa-mir-6756]”, the “pull-down binding Z-score” value rises from 0.365 to 0.806.

Compared with “GGGGCUGGCUGGGUCUGGUAGUGGGCAUCAGCUGGCCCU [hsa-mir-1207]”, GGGGCUGGUUGUCUA [hsa-mir-6080] is lower in “pull-down binding Z-score” value: 2.6 for the first, 0.377 for the second.

First: GGGGGCAGGCAGGGGAUUGGCUAAGAACCUGACUCUUGC [hsa-mir-7703]
Second: GGGGGCAGGCUGCCACCUCCUG [hsa-mir-8089]
The “pull-down binding Z-score” value of the first is higher: 2.48 for the first, 1.89 for the second.

First: GGGGGUGGCCGGGGCUGACCCU [hsa-mir-939]
Second: GGGGUAGAAGCCACCCG [hsa-mir-4466]
The “pull-down binding Z-score” value of the first is higher: 2.56 for the first, 0.492 for the second.

First: GGGGUCUUGCUCUAUU [hsa-mir-6088]
Second: GGGGUGGCUGCGGGCCUUCUGAAGGUCUCCC [hsa-mir-662]
The “pull-down binding Z-score” value of the first is lower: 0.572 for the first, 0.946 for the second.

Compared with GGGGUUUUUGCCUCCAACUGACUCC [hsa-mir-155], “GGGUCAGGUCUGCAGCCUUGUAUCUGCUGAUCC [hsa-mir-6881]” is higher in “pull-down binding Z-score” value: -0.292 for the first, -0.234 for the second.

Going from “GGGUCAGUGGCAGAGCCAGGCAGAUGCUGACCC [hsa-mir-6832]” to GGGUCCUAAGGUGUGUCCUC [hsa-mir-1976], the “pull-down binding Z-score” value falls from 0.45 to 0.25.

Compared with GGGUCGUGGGAAAGUGUUGACCC [hsa-mir-4655], “GGGUGAGAGUGCUUUCUGAAUGCAGUGCACCC [hsa-mir-500b]” is higher in “pull-down binding Z-score” value: 0.5 for the first, 0.52 for the second.

Going from “GGGUGAUACACAAGCCUGACCCUCCC [hsa-mir-6793]” to “GGGUGGGCGGGGGCGGCCGGUGGGAACCCCGCCCCGCCCCGCGCCCGCACUCACCC [hsa-mir-7108]”, the “pull-down binding Z-score” value rises from 0.416 to 5.22.

Compared with GGGUGUAUGGUAUAGGGGUAGCCU [hsa-mir-3137], “GGGUUCAAUAGAUUGCUUUAGCUGAAGCAAGCCU [hsa-mir-8054]” is lower in “pull-down binding Z-score” value: 2.5 for the first, 0.00977 for the second.

Going from “GGGUUGCAUCCUAAGCUGUGCUGGAGCUUCCC [hsa-mir-623]” to GGUAAGGUCUUUCAGCC [hsa-mir-7150], the “pull-down binding Z-score” value falls from 0.877 to 0.622.

First: GGUACUUUAUAAUUUCAAAAAGUCCC [hsa-mir-361]
Second: GGUAGAGAUGAUUUUUCCUACU [hsa-mir-5003]
The “pull-down binding Z-score” value of the first is lower: -1.51 for the first, 1.78 for the second.

Going from “GGUAGGUUACGUCAUGCUGUUCUACC [hsa-mir-140]” to “GGUAUGGAUUCUGUUGUUUUGGCAACAUUCU [hsa-mir-8088]”, the “pull-down binding Z-score” value falls from -0.0663 to -0.328.

Compared with “GGUCAGGUGGUGCCCUCCUUCCAUGGGUAGAGCCAGAGAUGGUGGGUUCUGGCU [hsa-mir-6131]”, “GGUCUGAGCCCAUGUGUGGACCUAGGUCUGCUGUUAAACUGACU [hsa-mir-6831]” is lower in “pull-down binding Z-score” value: 1.16 for the first, 0.492 for the second.

First: GGUGCAAAGCCUGCCCGCCCC [hsa-mir-5090]
Second: GGUGCAGUCAGUCCUAGCUC [hsa-mir-3135b]
The “pull-down binding Z-score” value of the first is higher: 0.254 for the first, 0.224 for the second.

First: GGUGGCAAUCAAGGUCUAGCCACC [hsa-mir-4733]
Second: GGUGGGCCUCUGCUCUGGCCCCUCC [hsa-mir-1343]
The “pull-down binding Z-score” value of the first is higher: 0.287 for the first, 0.0649 for the second.

Going from “GGUGGGGGCUCUGAGUGGGGAAAGUGGGGGCCUAGGGGAGGUCACAGU [hsa-mir-4259]” to GGUGGGUGCC [hsa-mir-1268b], the “pull-down binding Z-score” value falls from 4.21 to -0.332.

“GGUGGGUGGGAAGUAAGAUCUGACCUGGACUCCAUCCCACCCACC [hsa-mir-4640]” was tested, and the “pull-down binding Z-score” value was 5.35.
